Laboratory results reported in patent publication US20120263730A1 (DEUTSCHES KREBSFORSCHUNGSZENTRUM, published 2012).

B2: hRspo1-AP (human Rspondin-1 fused C-terminally with alkaline phosphatase) (ligand, UniProt Q2MKA7 21-263, looked up)
chain: SRGIKGKRQRRISAEGSQACAKGCELCSEVNGCLKCSPKLFILLERNDIRQVGVCLPSCPPGYFDARNPDMNKCIKCKIEHCEACFSHNFCTKCKEGLYLHKGRCYPACPEGSSAANGTMECSSPAQCEMSEWSPWGPCSKKQQLCGFRRGSEERTRRVLHAPVGDHAACSDTKETRRCTVRRVPCPEGQKRRKGGQGRRENANRNLARKESKEAGAGSRRRKGQQQQQQQGTVGPLTSAGPA
notes: Used as conditioned medium from HEK293T cells; also called hRspol-AP; not shown: alkaline phosphatase (AP) tag

How the values were obtained:
[1] = biological target: T1, Wnt5aV5 (V5-tagged Wnt5a) (mouse, UniProt P22725 62-380, limits assumed); assay: cell surface binding on transfected HEK293T cells
T1 construct: The construct text says 'mWnt3a was subcloned' for pPGKmWnt5aV5, which is probably a slip; Conditioned medium from stably transfected L cells; also called mWnt5aV5; recombinant Wnt5a; not shown: V5 tag
T1 sequence (looked up): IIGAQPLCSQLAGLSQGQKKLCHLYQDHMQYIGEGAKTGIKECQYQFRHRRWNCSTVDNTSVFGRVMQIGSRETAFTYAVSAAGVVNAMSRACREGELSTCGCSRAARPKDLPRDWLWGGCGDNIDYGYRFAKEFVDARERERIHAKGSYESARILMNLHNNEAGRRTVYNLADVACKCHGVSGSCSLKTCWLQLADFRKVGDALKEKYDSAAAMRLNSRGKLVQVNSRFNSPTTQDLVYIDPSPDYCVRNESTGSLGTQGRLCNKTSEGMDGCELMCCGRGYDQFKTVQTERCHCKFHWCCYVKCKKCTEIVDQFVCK
From the text: (A-C) Cell surface binding assays. (A, D) Rspo3 binds to syndecan 4 and glypican 3. HEK293T cells were transfected with indicated plasmids and V5-tagged Wnt5a or alkaline phosphatase tagged Rspo3, Dkk1, or TSP proteins were applied for cell surface binding as indicated. (B, C, E, F) Cells were transfected with indicated plasmids and conditioned media.
(§1) Protein conditioned media were produced by transient transfection of HEK293T cells with plasmids encoding fusion proteins: hRspol-AP, hRspo2ΔC-AP, hRspo3ΔC-AP, hRspo3TSP-AP, and dkk1-AP in complete DMEM. XWnt8-hFzd5 fusion was produced in serum-free medium (OPTIMEM I, Gibco) and conditioned medium was concentrated about 100-fold using Centricon Plus-20 filters (Millipore). Wnt5aV5 protein conditioned media was produced using L cells stable transfected with pWnt5aV5. For cell-surface binding experiments, 293T cells were plated on polylysine coated plates, transfected with genes to be tested using FuGENE 6 (Roche) for 48 h, incubated with conditioned media containing fusion proteins for 2 h on ice, washed with Hank's buffer, fixed for 30 min with 0,5mM DSP (Pierce) in Hank's-100mM HEPES, pH 7,2, washed with 0,1 M Tris pH 8,0 and stained with Fast Red (Roche). […] It should be compared with background staining obtained from cells transfected with control plasmid or other genes that are not able bind applied fusion protein.

[2] = biological target: B2; assay: cell surface binding, AP fusion on transfected HEK293T cells
From the text: (§2) (A) Rspo2 and Rspo3 bind to Syndecan-1, Syndecan-2, Syndecan-3 and Syndecan-4. […] HEK293 T-cells were transfected with indicated plasmids and alkaline phosphatase tagged Rspo1, Rspo2, Rspo3 and Rspo4 proteins were applied for cell surface binding as indicated. Cells were transfected with indicated plasmids and conditioned media containing alkaline phosphatise (AP)-fusion proteins of R-spondins were applied for cell surface binding and AP staining as indicated. (B) Cells were transfected with indicated plasmids and incubated with or without NaClO₃. After 24 h Rspo3-AP was applied for binding and proceeded for staining. (C) In vitro binding assay with N-streptag Sdc4ΔTMC purified from conditioned media of control or NaCIO₃ treated cells with purified Rspo3-AP (RU, relative units). (D) Scatchard plot analysis for in vitro binding assays with purified N-streptag Sdc4ΔTMC and Rspo3-AP. (E) Rspo3 binds to Glypican-1, Glypican-2, Glypican-3, Glypican-4, Glypican-5 and Glypican-6.
as §1

mouse Syndecan-3 = biological target: T2, mouse Syndecan-3 (mouse, UniProt Q64519 45-442, glycosaminoglycan chains (sites not given)); assay: as above
T2 construct: whole, on cells; Expressed on transfected HEK293T cells; also called Sdc3; mSdc3
T2 sequence (Q64519 45-442): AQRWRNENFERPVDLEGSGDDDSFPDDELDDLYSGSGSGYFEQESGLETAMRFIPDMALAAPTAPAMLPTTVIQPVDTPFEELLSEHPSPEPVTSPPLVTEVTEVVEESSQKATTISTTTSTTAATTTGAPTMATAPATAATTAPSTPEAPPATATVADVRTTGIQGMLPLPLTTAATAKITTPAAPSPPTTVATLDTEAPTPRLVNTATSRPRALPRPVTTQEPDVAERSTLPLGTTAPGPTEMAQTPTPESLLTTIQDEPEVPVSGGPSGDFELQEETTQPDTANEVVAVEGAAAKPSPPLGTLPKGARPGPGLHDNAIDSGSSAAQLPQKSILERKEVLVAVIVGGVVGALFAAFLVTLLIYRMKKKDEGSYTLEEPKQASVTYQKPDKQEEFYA
From the text: as §2, §1

mouse Syndecan-1 = biological target: T3, mouse Syndecan-1 (mouse, UniProt P18828 23-311, glycosaminoglycan chains (sites not given)); assay: as above
T3 construct: whole, on cells; Expressed on transfected HEK293T cells; also called Sdc1; mSdc1
T3 sequence (looked up): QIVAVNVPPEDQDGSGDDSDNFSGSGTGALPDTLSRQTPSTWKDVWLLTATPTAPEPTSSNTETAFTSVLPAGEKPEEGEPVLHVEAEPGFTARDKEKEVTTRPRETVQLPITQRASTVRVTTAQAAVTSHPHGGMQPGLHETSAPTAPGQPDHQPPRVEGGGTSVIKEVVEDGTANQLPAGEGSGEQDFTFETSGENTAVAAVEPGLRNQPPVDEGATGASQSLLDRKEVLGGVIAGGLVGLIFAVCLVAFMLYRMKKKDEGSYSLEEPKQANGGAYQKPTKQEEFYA
From the text: as §2, §1

[3] = biological target: T4, hRspo3ΔC-AP (human Rspondin-3 aa 1-209 fused to alkaline phosphatase) (human, UniProt Q9BXY4 22-209); assay: in vitro binding assay: N-streptag Sdc4ΔTMC on streptavidin-coated plates, serially diluted hRspo3ΔC-AP, bound AP activity by chemiluminescence, Scatchard plot
T4 construct: partially purified for the in vitro assay; also called Rspo3-AP; hRspo3-AP; not shown: alkaline phosphatase (AP) tag
T4 sequence: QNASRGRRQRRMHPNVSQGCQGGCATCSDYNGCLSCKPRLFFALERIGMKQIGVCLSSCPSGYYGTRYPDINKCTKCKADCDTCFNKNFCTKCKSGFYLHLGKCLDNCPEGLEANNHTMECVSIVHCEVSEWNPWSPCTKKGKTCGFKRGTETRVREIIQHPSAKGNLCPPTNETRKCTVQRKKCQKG
Description: For the in vitro binding assay white, high binding ELISA 96 well plates (Greiner) were coated overnight at 4° C. with 100 μL of 2 μg/mL Streptavidin in bicarbonate buffer (NaHCO₃, 50 mM, pH 9,6). Wells were washed 6 times with […] TBST and incubated with […] of blocking buffer (5% BSA, 1mM MgCl₂ on TBST) on a shaker for 1h at RT. The wells were loaded with […] N-streptag Sdc4ATMC protein in blocking buffer and allowed to bind overnight on a shaker at 4° C. Wells were washed 6 times with […] TBST and incubated with […] of blocking buffer for 1 h. For the binding experiments, […] of serially diluted hRspo3ΔC-AP were placed in wells coated with blocking buffer or N-streptag Sdc4ΔTMC. After 2 h incubation at RT wells were washed 6 times with […] TBST. Bound AP activity was measured using chemiluminescent SEAP Reporter Gene Assay (Roche). For each dilution, background binding value was subtracted from hRspo3ΔC-AP value. Binding data were analyzed by Scatchard plot using Excel.

B1: human Syndecan-4 (receptor)
chain: ESIRETEVIDPQDLLEGRYFSGALPDDEDVVGPGQESDDFELSGSGDLDDLEDSMIGPEVVHPLVPLDNHIPERAGSGSQVPTEPKKLEENEVIPKRISPVEESEDVSNKVSMSSTVQGSNIFERTEVLAALIVGGIVGILFAVFLILLLMYRMKKKDEGSYDLGKKPIYKKAPTNEFYA
modifications: glycosaminoglycan chains (GAGs)
notes: Expressed on transfected HEK293T cells; also called Sdc4; hSdc4
[1]
  binding result: no binding
[2]
  binding result: no binding

## B2
Mouse Syndecan-3
  binding result: no binding
Mouse Syndecan-1
  binding result: no binding

B3: N-streptag Sdc4ΔTMC (human Syndecan-4 extracellular domain, last 52 amino acids deleted, N-terminal Streptag-HA-CBP) (receptor)
chain: ESIRETEVIDPQDLLEGRYFSGALPDDEDVVGPGQESDDFELSGSGDLDDLEDSMIGPEVVHPLVPLDNHIPERAGSGSQVPTEPKKLEENEVIPKRISPVEESEDVSNKVSMSSTVQGSNIFERTE
modifications: sulfated glycosaminoglycan chains (GAGs)
notes: The Sdc4 signal peptide was replaced by that of mKremen2; Partially purified from conditioned medium of HEK293T cells and captured on streptavidin-coated plates; also called N-streptag-hSdc4ΔTMC; purified extracellular domain of Sdc4; not shown: Streptag-HA-CBP fragment of the pGLUE expression vector
[3]
  Kd: 0.88 nM
